Test system: EHEC (86-24 O157:H7, O104:H4, O128:H2)
Test: in vitro adherence assay: inhibition of EHEC adherence to human intestinal epithelial cells (LOVO) after pre-incubation with test strains
Type: cell-based
Details: ESBL-producing O104:H4 outbreak strain, O128:H2 and O157:H7 EHEC isolates; FIG. 5 (tested as producer strain E. coli G3/10)
Description: Enterohemorrhagic E. coli adhere to intestinal epithelial cells. In a second experiment, confluent monolayers of LOVO cells were pre-incubated with bacterial test strains at a multiplicity of infection (MOI) of 100:1 E. coli to host cells. The influence of EcN and E. coli G3/10 was tested. After two hours of incubation, cells were washed and infected with EHEC using an MOI of 100:1 EHEC to host cells. Three EHEC isolates were tested as indicator strains using the in vitro adherence assay. We used HUS-associated EHEC 86-24 serotype O157:H7 and two different isolates of the EHEC O104:H4 outbreak strain as well as an EHEC O128:H2 patient isolate. Since the EHEC O104:H4 isolates are ESBL producers, medical treatment is limited. Adherence efficiency in % are expressed as adherence of EHEC relative to adherence without any pre-incubation (negative control), which is set 100%. The data are the mean±SD of three separate experiments in duplicate wells.

B1: microcin S: new class IIa microcin, antimicrobial polypeptide of E. coli G3/10, SEQ ID NO: 7 (precursor with leader SEQ ID NO: 6) (protein, listed as Escherichia coli)
chain: NANSNYEGGGSRSRNTGARNSLGRNAPTHIYSDPSTVKCANAVFSGMVGGAIKGGPVGMTRGTIGGAVIGQCLSGGGNGNGGGNRAGSSNCSGSNVGGTCSR
inhibitory effect of EHEC: shows an inhibitory effect of EHEC

Reference: patent publication US20170008934A1, “BACTERIALLY FORMED MICROCIN S, A NEW ANTIMICROBIAL PEPTIDE, EFFECTIVE AGAINST PATHOGENIC MICROORGANISMS, E.G. ENTEROHEMORRHAGIC ESCHERICHIA COLI (EHEC)” (SYMBIOGRUPPE GmbH & CO. KG, priority 2011, published 2017)
